{
  "source": "patent US20240409617A1",
  "binders": {"B1": {"name": "Ab2-7 IgG (antibody, V domains shown)", "VH": "QVTLKESGPTRVKPTQTLTLTCTFSGFSLSTTGVGVGWIRQPPGKALEWLALIYWNDDKRYSPSLKSRLTITKDTSKNQVVLTMTNMDPVDTATYYCARISGSGYFYPFDIWGQGTTVTVSS", "VL": "NFMLTQPHSVSESPGKTVTISCTRSSGSIASNYVQWYQQRPGSSPTTVIYEDNQRPSGVPDRFSGSIDSSSNSASLTISGLKAEDEADYYCQSYDSSSLWVFGGGTKLTVL"}},
  "key": {"[1]": {"target": "SARS-CoV-2 receptor binding domain (RBD), recombinant, biotinylated (SARS-CoV-2)"}, "[2]": {"target": "SARS-CoV-2 spike protein on stably transduced 293T cells (SARS-CoV-2)", "test": "FACS binding curve, percent of cells labeled"}},
  "data": [
    {"binder": "B1", "values": [
      {"measurement": "Kd", "setting": "[1]", "result": 0.268, "unit": "nM"},
      {"measurement": "koff", "setting": "[1]", "result": "3.93e-05", "unit": "s⁻¹"},
      {"measurement": "kon", "setting": "[1]", "result": 147000, "unit": "M⁻¹ s⁻¹"},
      {"measurement": "fold shift of the FACS binding curve to the right, IgG against scFv-Fc", "setting": "[2]", "result": 10, "unit": "fold"}
    ]}
  ]
}
